We go through two molecules from patent US20070269439A1 (published 2007).

The target of assay [1] is IL-17 receptor (receptor of the first BIACORE screen of Example 8; construct not stated) (Homo sapiens (Human)) (UniProt Q96F46). Kind of assay: BIACORE SPR; IL-17 at 25 ug/mL.
For assay [2], the target named is T1, IL-17 receptor (Met-1 through Asp-315)-Fc (human, UniProt Q96F46 33-315).
T1 construct: range 1-315; also called IL17R-Fc; huIL-17R extracellular domain-Fc; not shown: human Fc domain (heavy chain constant region of IgG1)
Nature of the assay: BIACORE SPR (summary of Example 8). The protocol: (§1) Binding Analyses—IL-20 protein was dialyzed against 10 mM sodium acetate buffer, pH 5 and a BIACORE™ flow cell was prepared for each receptor at densities of 7900 and 9600 RU for IL-17R and IL17RLP, respectively. Various concentrations of purified IL-20 and IL-17 (R&D Systems, Minneapolis, Minn.) in 50 microliters herpes-buffered saline (HBS) buffer were examined for receptor binding at a flow rate of 15 microliters per minute. After injection of sample the flow cell was equilibrated with HBS. Flow cells were regenerated using two 40 sec pulses of 10 mM HCl.

Assay [3] addresses T2, IL17RLP (Met-(-19) through Gly-270 of SEQ ID NO:2)-Fc fusion (human, UniProt Q9NRM6 18-289).
T2 construct: also called IL17RLP-Fc; soluble IL17RLP-Fc fusion protein; not shown: human Fc domain (heavy chain constant region of IgG1)
T2 sequence: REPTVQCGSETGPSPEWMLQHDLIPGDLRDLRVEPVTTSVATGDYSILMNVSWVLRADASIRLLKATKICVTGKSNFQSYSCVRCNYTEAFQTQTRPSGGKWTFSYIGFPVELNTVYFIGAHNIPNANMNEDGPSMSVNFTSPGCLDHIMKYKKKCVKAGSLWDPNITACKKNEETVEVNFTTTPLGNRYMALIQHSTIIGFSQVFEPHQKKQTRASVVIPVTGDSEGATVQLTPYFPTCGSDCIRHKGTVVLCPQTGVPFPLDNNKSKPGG
Nature of the assay: BIACORE SPR (summary of Example 8). The protocol:
as §1

Assay [4] has as its target IL-17 receptor (receptor of the first BIACORE screen of Example 8; construct not stated) (Homo sapiens (Human)) (UniProt Q96F46). Nature of the assay: BIACORE SPR; conditioned CHO culture supernatant, IL-20 concentration estimated at ~25 ug/mL.

Where “and” joins values, the source holds several entries; their conditions need not be identical. Equal entries are not always repeated.

T1 sequence (Q96F46 33-315 limits assumed): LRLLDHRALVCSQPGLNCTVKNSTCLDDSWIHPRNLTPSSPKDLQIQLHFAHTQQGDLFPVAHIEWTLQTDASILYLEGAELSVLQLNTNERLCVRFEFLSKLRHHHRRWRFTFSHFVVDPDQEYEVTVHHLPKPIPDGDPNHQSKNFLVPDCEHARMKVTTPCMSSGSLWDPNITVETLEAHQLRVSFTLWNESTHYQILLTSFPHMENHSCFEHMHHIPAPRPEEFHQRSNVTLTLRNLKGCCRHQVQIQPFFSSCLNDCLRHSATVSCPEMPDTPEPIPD

In assay [1], “Recombinant human IL-17 (R&D Systems) (from UniProt Q16552 20-155) (ligand)” displayed an SPR binding response (RU) of 60 RU.

B1: recombinant human IL-20 expressed in CHO cells (purified protein or conditioned culture supernatant) (ligand)
chain: RSPKSKRKGQGRPGPLAPGPHQVPLDLVSRMKPYARMEEYERNIEEMVAQLRNSSELAQRKCEVNLQLWMSNKRSLSPWGYSINHDPSRIPVDLPEARCLCLGCVNPFTMQEDRSMVSVPVFSQVPVRRRLCPPPPRTGPCRQRAVMETIAVGCTCIF
notes: The complete ORF was expressed in CHO cells and the protein was secreted; The preparation is heterogeneous; Residues 23-180 is the longest species observed; GenBank AF212311 is printed; also called hIL-20; huIL-20
In the case of B1, the binding result in assay [2] and in assay [3] was “binds” each time. In assay [4], the SPR binding response (RU) was 115 RU and 65 RU.
